In patent publication US20210108176A1 (IMPERIAL COLLEGE INNOVATIONS, published 2021):

Target: T1, EZH2 (UniProt Q15910 1-746, limits assumed)
T1 construct: Endogenous protein immunoprecipitated from U266 cell chromatin; also called polycomb complex methyl-transferase EZH2
Test: ChIP-reChIP qPCR in U266 cells (IP against RARalpha, then EZH2)
Protocol: Chromatin immunoprecipitation (ChIP) combined with real-time quantitative polymerase chain reaction (ChIP-RQ-PCR) was performed for anti-H3K4me3, anti-H3K27me3, anti-RNA polymerase II CTD phospho Ser2, anti-RNA polymerase II CTD phospho Ser5, anti-EZH2, anti-RARα and control IgG as previously described²⁵. For Re-ChIP assays, the wash and chromatin elution steps of the first IP were performed with protease inhibitor-containing buffers and the first elution was performed by incubating the magnetic beads in 10 mM DTT/TE for 30 min at 37° C. The eluate of the first IP was diluted at least 20× in ChIP dilution buffer, followed by a second IP according to the same protocol as above. Expression of immunoprecipitated DNA was calculated, either relative to input DNA or DNA immunoprecipitated by control IgG antibody, using the ΔΔCT method.

T1 sequence (Q15910 whole entry): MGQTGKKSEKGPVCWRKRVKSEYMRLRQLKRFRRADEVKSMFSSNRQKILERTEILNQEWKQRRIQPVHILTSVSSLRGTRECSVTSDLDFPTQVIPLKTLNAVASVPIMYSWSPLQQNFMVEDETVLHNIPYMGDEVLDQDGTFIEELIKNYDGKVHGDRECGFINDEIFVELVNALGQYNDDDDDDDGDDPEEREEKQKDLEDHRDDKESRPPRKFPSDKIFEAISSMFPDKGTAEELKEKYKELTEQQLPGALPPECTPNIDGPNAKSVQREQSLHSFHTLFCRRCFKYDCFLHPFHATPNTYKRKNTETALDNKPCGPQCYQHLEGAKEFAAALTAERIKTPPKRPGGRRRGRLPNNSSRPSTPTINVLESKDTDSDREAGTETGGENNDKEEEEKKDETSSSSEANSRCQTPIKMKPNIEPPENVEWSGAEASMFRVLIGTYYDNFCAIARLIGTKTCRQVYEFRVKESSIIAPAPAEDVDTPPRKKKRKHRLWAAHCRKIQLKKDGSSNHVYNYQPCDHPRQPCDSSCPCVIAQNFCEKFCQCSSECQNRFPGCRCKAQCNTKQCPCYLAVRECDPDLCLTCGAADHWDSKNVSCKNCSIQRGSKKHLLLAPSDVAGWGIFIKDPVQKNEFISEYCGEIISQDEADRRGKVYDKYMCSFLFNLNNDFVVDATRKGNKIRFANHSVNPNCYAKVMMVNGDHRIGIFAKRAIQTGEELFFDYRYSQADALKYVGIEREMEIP

B1: RARalpha (receptor, UniProt P10276 1-462, looked up)
chain: MASNSSSCPTPGGGHLNGYPVPPYAFFFPPMLGGLSPPGALTTLQHQLPVSGYSTPSPATIETQSSSSEEIVPSPPSPPPLPRIYKPCFVCQDKSSGYHYGVSACEGCKGFFRRSIQKNMVYTCHRDKNCIINKVTRNRCQYCRLQKCFEVGMSKESVRNDRNKKKKEVPKPECSESYTLTPEVGELIEKVRKAHQETFPALCQLGKYTTNNSSEQRVSLDIDLWDKFSELSTKCIIKTVEFAKQLPGFTTLTIADQITLLKAACLDILILRICTRYTPEQDTMTFSDGLTLNRTQMHNAGFGPLTDLVFAFANQLLPLEMDDAETGLLSAICLICGDRQDLEQPDRVDMLQEPLLEALKVYVRKRRPSRPHMFPKMLMKITDLRSISAKGAERVITLKMEIPGSMPPLIQEMLENSEGLDTLSGQPGGGGRDGGGLAPPPGSCSPSLSPSSNRSSPATHSP
notes: Endogenous protein immunoprecipitated from U266 cell chromatin
B1: binds.
